From doi:10.1101/2020.05.24.113621 (bioRxiv, 2020)

Target: the molecule itself
Experiment: crystal structure

GNYNVF [hnRNPA2 mutant core segment GNYNVF (residues 286-291 with D290V)]: binds.
